# In US20210253648A1:
# Target: HLA-A2 MHC class I molecule on the surface of the target cells (no C2 peptide added) (human)
substance,measurement,value
"TCR CMV-pp65-PE STAR multimer reagent (Soluble T-Cell Antigen Receptor STAR Multimer, Altor Bioscience)",Percentage of Positive Cells,0.96%
same,iMFI,70 RFU
